Measurements published in patent publication US20030096225A1.

Biological target: purified recombinant Ep-CAM produced in insect cells (UniProt P16422)
Assay: SPR (BIAcore), Ep-CAM coupled to CM5 chip, control antibody

purified recombinant Ep-CAM produced in insect cells, sequence (P16422 24-265 limits assumed): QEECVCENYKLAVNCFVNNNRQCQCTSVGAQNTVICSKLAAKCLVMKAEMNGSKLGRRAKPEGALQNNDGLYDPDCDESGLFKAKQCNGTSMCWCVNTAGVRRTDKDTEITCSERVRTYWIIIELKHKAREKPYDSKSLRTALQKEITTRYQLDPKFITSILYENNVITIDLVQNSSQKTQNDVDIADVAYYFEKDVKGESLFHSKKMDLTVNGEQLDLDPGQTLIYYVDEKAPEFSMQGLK

## murine anti-Ep-CAM antibody 323/A3
  Kd: 0.5 nM
